According to the Human Domainome abundance scans (Beltran et al. 2025):

B1: Formin-binding protein 4, residues 200 to 261; numbered along this chain, Q8N3X1 (parent)
chain: SGWQYDTQCSLAGVGIEMGDWQEVWDENTGCYYYWNTQTNEVTWELPQYLATQVQGLQHYQP

Variants of: B1
Experiment: abundance fitness (aPCA) (normalised: wild type 0, dead -1); higher = more abundant; growth selection in yeast, the domain comes from the species named
Conditions: Homo sapiens

Abundance fitness: each site, then its substitutions
S10: Y -0.623
L11: A -0.731, C -0.429, D -0.429, E -0.483, F -0.714, G -0.678, H -0.559, I -0.061, K -0.469, M -0.625, N -0.79, P -0.636, V -0.192, W -0.381, Y -0.57
A12: C -0.185, D -0.226, E -0.267, F -0.465, G 0.089, H -0.217, I -0.363, K -0.146, L -0.272, M -0.587, N -0.331, P -0.448, Q -0.131, S -0.068, T -0.389, V -0.041, Y -0.025
G13: A -0.237, C -0.103, D -0.087, E -0.161, F -0.129, H -0.158, I -0.471, K -0.107, L -0.187, M -0.158, N -0.468, P -0.082, Q -0.197, R -0.194, S -0.171, T -0.009, V -0.424, W -0.666, Y -0.578
V14: A -0.06, C -0.043, D -0.273, E -0.03, G 0.091, H -0.09, K 0.116, L -0.071, M -0.028, N -0.067, P -0.698, Q 0.071, R -0.01, S -0.163, T -0.084, W 0.055, Y 0.365
G15: A 0.273, C -0.182, D 0.132, E -0.178, F -0.583, H -0.536, I -0.67, K -0.073, L -0.638, M -0.321, N -0.21, P -0.03, Q 0.1, R -0.071, S -0.11, T -0.099, V -0.481, W -0.727, Y -0.661
I16: A -0.332, C -0.373, D -0.742, E -0.507, F -0.195, G -0.763, H -0.8, K -0.542, L -0.137, M 0.08, N -0.676, P -0.735, Q -0.621, R -0.713, S -0.574, T -0.506, V 0.027, W -0.671, Y -0.334
E17: A -0.183, C -0.338, D 0.138, F -0.263, G -0.346, H -0.105, I -0.373, K 0.063, L -0.577, M -0.414, N -0.34, P -0.58, Q -0.038, R -0.103, S -0.151, V -0.237, W -0.403, Y -0.838
M18: A -0.685, C -0.549, E -0.534, F -0.278, G -0.545, H -0.432, I -0.247, K -0.618, L -0.313, N -0.869, P -0.264, Q -0.69, R -0.643, S -0.586, T -0.132, W 0.025, Y -0.53
G19: A -0.091, C -0.918, D -0.362, E -0.4, F -0.794, H -0.642, I -0.769, M -0.525, N -0.676, P -0.897, R -0.722, S -0.454, T -0.782, W -0.992, Y -0.96
D20: A -0.3, C -0.162, E -0.162, F 0.15, G -0.254, H -0.043, I -0.579, K -0.287, L -0.383, M -0.29
